Experimental data published in patent publication US20240059799A1 (Pfizer, published 2024).
Substitutions are numbered along the chain they refer to.

T1: recombinant human TL1A (human, UniProt O95150 71-251)
T1 construct: homotrimer; biotinylated for SPR capture; the ELISA paragraphs say only 'recombinant TL1A'; also called TNFSF15
T1 chain: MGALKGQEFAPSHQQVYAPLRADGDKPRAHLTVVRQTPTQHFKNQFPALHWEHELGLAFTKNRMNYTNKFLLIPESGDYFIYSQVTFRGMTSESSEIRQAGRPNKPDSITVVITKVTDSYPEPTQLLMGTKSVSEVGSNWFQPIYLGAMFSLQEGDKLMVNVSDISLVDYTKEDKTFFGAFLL

T2: recombinant human TL1A (human, UniProt O95150 71-251)
T2 construct: Homotrimeric cytokine; biotinylated with Sulfo-NHS-biotin where captured for SPR, coated unlabelled in ELISA, soluble in bioassays; also called TNFSF15
T2 chain: T1 chain

B1: TL1A-0025 (antibody, V domains shown)
VH: QVQLVQSGAEVKKPGASVKVSCKASGYDFTYYGISWVRQAPGQGLEWMGWISTYNGNDHYADSLQGRVTMTTDTSTRTAYMELRSLRSDDTAVYYCARENYYGSGAYRGGMDVWGQGTTVTVSS
VL: EIVLTQSPATLSLSPGERATLSCRASQSVSSYLAWYQQKPGQAPRLLIYDASNRATGIPARFSGSGSGTDFTLTISSLEPEDFAVYYCQQRSNWPWTFGQGTKVEIKR
B2: TL1A-0085 (antibody, IgG1, V domains shown)
VH: B1 VH with I51A, D58T, D62Q, S63K
VL: B1 VL
notes: IgG1/kappa variant of TL1A-0002
B3: TL1A-0094 (antibody, IgG1, V domains shown)
VH: B1 VH with D58T, D62R, S63M, N100S
VL: B1 VL
notes: as for B2
B4: TL1A-0195 (antibody, IgG1, V domains shown)
VH: B1 VH with D58T, D62R, S63M, N100Q, Y107H
VL: B1 VL
notes: as for B2
B5: TL1A-0087 (antibody, IgG1, V domains shown)
VH: B1 VH with T53A, D58T, D62P
VL: B1 VL
notes: as for B2
B6: TL1A-0098 (antibody, IgG1, V domains shown)
VH: B1 VH with D58T, D62R, S63M, N100E
VL: B1 VL
notes: as for B2
B7: TL1A-0194 (antibody, IgG1, V domains shown)
VH: B1 VH with D58T, D62R, S63M, N100Q, Y107F
VL: B1 VL
notes: as for B2
B8: TL1A-0096 (antibody, IgG1, V domains shown)
VH: B1 VH with D58T, D62R, S63M, N100V
VL: B1 VL
notes: as for B2
B9: TL1A-0088 (antibody, IgG1, V domains shown)
VH: B1 VH with N55G, D58T, D62P
VL: B1 VL
notes: as for B2
B10: TL1A-0160 (antibody, IgG1, V domains shown)
VH: B1 VH with D58E, D62P, A106L
VL: B1 VL
notes: as for B2
B11: TL1A-0197 (antibody, IgG1, V domains shown)
VH: B1 VH with D58T, D62R, S63M, N100S, Y107F
VL: B1 VL
notes: as for B2
B12: TL1A-0147 (antibody, IgG1, V domains shown)
VH: B1 VH with D58E, D62Q, S63K
VL: B1 VL
notes: as for B2
B13: TL1A-0095 (antibody, IgG1, V domains shown)
VH: B1 VH with D58T, D62R, S63M, N100T
VL: B1 VL
notes: as for B2
B14: TL1A-0097 (antibody, IgG1, V domains shown)
VH: B1 VH with D58T, D62R, S63M, N100Q
VL: B1 VL
notes: as for B2
B15: TL1A-0193 (antibody, IgG1, V domains shown)
VH: B1 VH with D58T, D62R, S63M, N100Q, A106E
VL: B1 VL
notes: as for B2
B16: TL1A-0083 (antibody, IgG1, V domains shown)
VH: B1 VH with N55G, D58T, D62Q, S63K
VL: B1 VL
notes: as for B2
B17: TL1A-0091 (antibody, IgG1, V domains shown)
VH: B1 VH with G56T, N57V, D58T, D62Q, S63K
VL: B1 VL
notes: as for B2
B18: TL1A-0250 (antibody, IgG1, V domains shown)
VH: B1 VH with G56T, N57V, D58T, D62P, R77S, N100S, Y107F
VL: DIQMTQSPSSLSASVGDRVTITCRASQSVSSYLAWYQQKPGKAPKLLIYDASNRATGVPSRFSGSGSGTDFTLTISSLQPEDFATYYCQQRSNWPWTFGQGTKVEIKR
notes: IgG1/kappa
B19: TL1A-0093 (antibody, IgG1, V domains shown)
VH: B1 VH with T53A, G56A, D58T, D62P
VL: B1 VL
notes: as for B2
B20: TL1A-0086 (antibody, IgG1, V domains shown)
VH: B1 VH with I51A, D58T, D62P
VL: B1 VL
notes: as for B2
B21: TL1A-0084 (antibody, IgG1, V domains shown)
VH: B1 VH with I51A, D58T, D62R, S63M
VL: B1 VL
notes: as for B2
B22: TL1A-0090 (antibody, IgG1, V domains shown)
VH: B1 VH with G56T, N57G, D58T, D62P
VL: B1 VL
notes: as for B2
B23: TL1A-0167 (antibody, human IgG1, kappa, V domains shown)
VH: B1 VH with D58T, D62R, S63M, R77S
VL: B1 VL
notes: TL1A-0002 heavy chain with R(H76)S, TL1A-0002 light chain
B24: TL1A-0092 (antibody, IgG1, V domains shown)
VH: B1 VH with G56T, N57V, D58T, D62P
VL: B1 VL
notes: as for B2
B25: TL1A-0089 (antibody, IgG1, V domains shown)
VH: B1 VH with G56T, N57G, D58T, D62Q, S63K
VL: B1 VL
notes: as for B2
B26: TL1A-0196 (antibody, IgG1, V domains shown)
VH: B1 VH with D58T, D62R, S63M, N100S, A106E
VL: B1 VL
notes: as for B2
B27: TL1A-0042 (antibody, human IgG1, kappa, V domains shown)
VH: B1 VH with D58T, D62R, S63M
VL: B18 VL
notes: parental heavy chain with IGKV1-39*01 light chain; human IgG1 effector-function-minimized/kappa
B28: TL1A-0266 (antibody, human IgG1, kappa, V domains shown)
VH: B1 VH with F29Y, G56T, D58T, D62P, R77S, N100S, Y107F
VL: B18 VL
notes: human IgG1 effector-function-minimized/kappa

Target: T1, recombinant human TL1A
Assay: competition ELISA vs bio-TL1A-0002
Protocol: (§1) For this competition ELISA assay procedure, 96-well high binding plates (Corning, product number 3590) were coated with 1 μg/mL recombinant TL1A in 100 μL/well in Phospate Buffered Saline (PBS) overnight at 4° C. Plates were then blocked in PBS+0.02% casein solution and washed with PBS+0.05% Tween-20 following standard ELISA protocol. […] Plates were washed with PBS+0.05% Tween-20 following standard ELISA protocol, and Streptavidin-HRP (Southern Biotech, product number 7100-05) diluted to 1:10,000 in assay buffer was added to plates and incubated for 25-30 minutes at room temperature. Next, the plates were washed with PBS+0.05% Tween-20 following standard ELISA protocol, and then TMB substrate (BioFX Laboratories, catalog number TMBW-0100-01) was added to plates. Reactions were stopped after approximately 5 minutes by adding 0.18 M ortho-phosphoric acid to each well and absorbance was read at 450 nm.

Row | Binder | Bioactivity relative to TL1A-0002 [fold] | IC50 [nM] | fold reduction of TL1A binding properties compared to TL1A-0002 [fold]
1 | B1 | 1.6 | 7.2 | –
2 | B2 | 1 | 4.7 | –
3 | B3 | 1.2 | 5.5 | –
4 | B4 | 1.8 | 8.2 | –
5 | B5 | 1.1 | 4.8 | –
6 | B6 | 1.5 | 6.6 | –
7 | B7 | 1.8 | 8.3 | –
8 | B8 | 2.3 | 10.3 | –
9 | B9 | 1.4 | 6.5 | –
10 | B10 | 2 | 9.1 | –
11 | B11 | 1.9 | 8.7 | –
12 | B12 | 1.6 | 7.2 | –
13 | B13 | 2 | 8.8 | –
14 | B14 | 2.2 | 10 | –
15 | B15 | 2.7 | 12 | –
16 | B16 | 1.5 | 6.8 | –
17 | B17 | 1.2 | 5.4 | –
18 | B18 | – | – | > 300
19 | B19 | 1.3 | 5.9 | –
20 | B20 | 1.1 | 5 | –
21 | B21 | 1 | 4.5 | –
22 | B22 | 1 | 4.5 | –
23 | B23 | 0.9 | 4.2 | –
24 | B24 | 1.2 | 5.2 | –
25 | B25 | 1.2 | 5.4 | –
26 | B26 | 2.7 | 11.9 | –

Target: T2, recombinant human TL1A
Assay: competition ELISA, coated TL1A, competitor bio-TL1A-0002
Protocol: as §1

Row | Binder | Bioactivity relative to TL1A-0002 [fold] | IC50 [nM]
27 | B27 | 0.8 | 4.2
28 | B28 | 1.3 | 6.6

Target: T2, recombinant human TL1A
Assay: cell-based or functional assay

Row | Binder | TF-1 NF-κB reporter cell bioassay IC50 [nM] | TF-1 NF-κB reporter cell bioassay, Bioactivity relative to TL1A-0002 [fold] | Whole blood IFNγ assay IC50 [nM] | Whole blood IFNγ assay, Bioactivity relative to TL1A-0002 [fold]
29 | B27 | 25.9 | 0.7 | 0.748 | 0.9
30 | B28 | 37 | 1.1 | 0.745 | 0.9
